From the nanobody polyreactivity screen of Harvey et al. (2022)

experiment: yeast display, Sf9 membrane polyspecificity reagent, FACS + sequencing; frameworks hold sequencing errors
Summary of the method: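 Polyreactivity labels are assigned by the sorting gate from which each nanobody was recovered. The gates were low and high (top ~1%), set on anti-HA fluorescence for expression and streptavidin fluorescence for reagent binding. Before sorting, galactose-induced (36–48 hours) yeast display cells were stained for 1 hour at 4 °C with 10% biotinylated, detergent-solubilized Sf9 membrane reagent.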

| Sequence | polyreactivity (PSR sort gate) |
| --- | --- |
| QVQLVESGGGLVQAGGSLRLSCAASGSTFGSNAMGWYRQAPGKERELVAAISSSGSTYYADSVKGRFTISRDNAKNTVYLQMNSLKPEDTAVYYSAAPGSPYGYWGQGTQVTVSW | high polyreactivity |
| QVQLVESGGGLVQAGGSLRLSCAASGSTFGSNAMGWYRQAPGKERELVATITRRSGSTYYADSVKGRFTISRDNAKNTVYLQMNSLKPEDTAVYYCARVGFWLQYDYWGQGTQVTVSS | high polyreactivity |
| QVQLVESGGGLVQAGGSLRLSCAASGSTFGSYAMGWYRQAPGKERELVAAISWNGGRTYYADSVKGRFTISRDNAKNTVYFQRNSLKPEDTAVYYCAKVVKYQSGGGLEYWGQGTQVTVSS | high polyreactivity |
| QVQLVESGGGLVQAGGSLRLSCAASGSTFGSYTMGWYRQPPGKERELVAAINWSGGNTYYADSVKGRFTISRDNAKNTVYLQMNSLKPEDTAVYYCAAAFYIYGFEGDYWGQGTQVTVSS | low polyreactivity |
| QVQLVESGGGLVQAGGSLRLSCAASGSTFGSYVMGWYRQAPGKERELVAAIRWSGTSTYYADSVKGRFTISRDNAKNTVYLQLNSLKPEDTAVYYCNATPNYNRGDHTPMDYWGQGTQVTVSS | low polyreactivity |
| QVQLVESGGGLVQAGGSLRLSCAASGSTFGTNAMGWYRQAPGKEREFVASIRKSGGSTYYADSVKGRFTISRDNSKNTVYLQMNSLKPEDTAVYYCAAVYRRYLGGGYDYWGQGTQVTVSS | high polyreactivity |
| QVQLVESGGGLVQAGGSLRLSCAASGSTFGTNAMGWYRQAPGKEREFVASISVSGGSTYYADSVKGRFTISRDNAKNTVYLQMNSLKPEDTAVYYCNRRAYRRYQFGYWGQGTQVTVSS | high polyreactivity |
| QVQLVESGGGLVQAGGSLRLSCAASGSTFGTNAMGWYRQAPGKERELVAAITYSGGRTYYADSVKGRFTISRDNAKNTVYLQMNSLKPEDTAVYYCAATFGFFYYQYEYWGLGTQVTVSS | low polyreactivity |
| QVQLVESGGGLVQAGGSLRLSCAASGSTFGTYAMGWYRQAPGKERELVASIDNSTSGTYYADSVKGRFTISRDNAKNTVYLQMNSLKPEDTAVYYCAATPLVDGSSIPREGDYWGQGTQVTVSS | low polyreactivity |
| QVQLVESGGGLVQAGGSLRLSCAASGSTFGTYAQGCYRQAPVKDRELVAAITYSTGNTYDADSVKGRFTISRDNAKNTVYLQMNSLKPEDTAVYYCALEYVYDYFWMDYWGQGTQVTVSS | high polyreactivity |
| QVQLVESGGGLVQAGGSLRLSCAASGSTFGTYTMGWYRPAPGKERELVAAISNRGGTYYADSVKGRFTISRDNAKNTVYLQMNSMKPEDTAVYYCAVARRWGYDYWGQGTQVTVSS | high polyreactivity |
| QVQLVESGGGLVQAGGSLRLSCAASGSTFGVNAMGWSRQAPGKERELVAVITRSGGSTYYADSVKGRFTISRDNAKNTVFLQMNSLIPEDTAVYYCAKSGVVDWGQGTQVTVSS | low polyreactivity |
| QVQLVESGGGLVQAGGSLRLSCAASGSTFGVNAMGWYRQAPGKERELVAGISSGTSTYYADSVKGRFTISRDNAKNTVYLQMNSLKPEDTAVYYCATRWSYRYGYWGQGTQVTVSS | high polyreactivity |
| QVQLVESGGGLVQAGGSLRLSCAASGSTFGVNTMGWYRQAPGKERELVAAITKSGGSTYYADSVKGRFTISRDNAKNTVYLQMNSLKPEDTAVYYCNTDYGRYLYYRYGYWGQGTQVTVSS | low polyreactivity |
| QVQLVESGGGLVQAGGSLRLSCAASGSTFGVNTMGWYRQAPGKERELVAAITSRGGSTYYADSVKGRFTISRDNAKNTVYLQMNSLKPEDTAVYYCAAEASYYRIRRYYWGQGTQVTVSS | high polyreactivity |
| QVQLVESGGGLVQAGGSLRLSCAASGSTFGVYAMGWYRQAPGKERELVAAINARGTRTRYADSVKGRFTISRDNAKNTVYLQMTSMKPEDTAVYYCAAVWYGYYSIDTDGYWGQGSQVTVSS | high polyreactivity |
| QVQLVESGGGLVQAGGSLRLSCAASGSTFGVYAMGWYRQAPGKERELVAAISGSGAGTYYADSVKGRFTISRDNAKNTVYLQMNSLKPEDTAVYYCAAETYYSIYDYWGQGTQVTVSS | high polyreactivity |
| QVQLVESGGGLVQAGGSLRLSCAASGSTFGVYNMGWYRQAPGQESELVAAITKSGGSTYYADSVMGLFTISRDNAKNTVYLQMNSMNPEDTAVYYCNTDYGRYLYYRFGYLGQGTQVTVSS | low polyreactivity |
| QVQLVESGGGLVQAGGSLRLSCAASGSTFGWNTMGWYRQAPGKERELVAAISWYGDRTYYADSVKGRFTISRDNAKNTVYLQMNSLKPEDTAVYYCARQRYYGYYYWGQGTQVTVSS | high polyreactivity |
| QVQLVESGGGLVQAGGSLRLSCAASGSTFGWYAMGLYRQAPVKERELVATISSGGSTYYADSVKGRFTISRDNAKNNVYLQMNSLKPEDTAVYYCAADYWTYEYPGYDYWGQGTQVTVSS | low polyreactivity |
| QVQLVESGGGLVQAGGSLRLSCAASGSTFGYNAMAWYRQAPGKERELVAAISWSGGSTYYADSVKGRFTISRDNAKNTVYLQMNSLKPEDTAVYYCATPYVKWNDYWGQGTQVTVSS | low polyreactivity |

| Sequence | polyreactivity (PSR sort gate) |
| --- | --- |
| QVQLVESGGGLVQAGGSLRLSCAASGSTFGYNAMGWYRQAPGKEREFVAAITRRGGNTYYADSVKGRFTISRDNAKNTVYLQMNSLKPEDTAVYYCAARYLQGRYDYWGQGTQVTVSS | high polyreactivity |
| QVQLVESGGGLVQAGGSLRLSCAASGSTFGYNAMGWYRQAPGKERELVAAISSSGSSTSYADSVKGRFTISRDNAQNTVYLQMNSLKPEDTAVYYCAARWTRQRYRTSYYSWGQGTEVTVSS | high polyreactivity |
| QVQLVESGGGLVQAGGSLRLSCAASGSTFGYYAMGWYRQAPGKEREFVAAITSDGSSTYYADSVKGRFTISRDNAKNTVYLQMNSMKREDTAVYYCAADTFTYGGYKFYIFYWGQGTQVTVSS | high polyreactivity |
| QVQLVESGGGLVQAGGSLRLSCAASGSTFGYYAMGWYRQAPGKERELVAAINVSGGRTYYADSVKGRFTISRDNAKNTVYLQMNSLKPEDTAVYYCAASLYSYRSPYTFYYWGQGTQVTVSS | high polyreactivity |
| QVQLVESGGGLVQAGGSLRLSCAASGSTFGYYAMGWYRQAPGKERELVAAISGSGTSTYYADSVKGRFTISRDNAKNTVYLQMNSLKPEDTAVYYCATRYRYTGCGYWGQGSQVTVSS | low polyreactivity |
| QVQLVESGGGLVQAGGSLRLSCAASGSTFGYYAMGWYRQAPGKERELVAAISRSGTRTYYADSVKGRFTISRDNAKYTVYLQMNSLKPEDTAVYYCAVKGPARGYDYWGQGTQVTVSS | high polyreactivity |
| QVQLVESGGGLVQAGGSLRLSCAASGSTFGYYAMGWYRQAPGKERELVAAISWRGGSTYYADSVKGRFTISRDNAKNTVYLQMNSLKPEDTAVYYCAAAIFITGYGSYGYWGQGTQVTVSS | low polyreactivity |
| QVQLVESGGGLVQAGGSLRLSCAASGSTFGYYAMGWYRQAPGKERELVAAISYIGGSTYYADSVKGRFTISRDNANNTDYLQMNSQKPEDTAVYYCAAQYVTYAYDYWGQGTQVTVSS | low polyreactivity |
| QVQLVESGGGLVQAGGSLRLSCAASGSTFGYYAMGWYRQAPGKERELVARISGGTRTNYADSVKGRFTISRDNAKNTVYLQMNSLKPEDTAVYYCNAYYYIPFEGRGYSKMDYWGQGTQVTVSS | high polyreactivity |
| QVQLVESGGGLVQAGGSLRLSCAASGSTFGYYAMGWYRQAPGKERELVASITSDGSTNYADSVKGRFTISRDNAKNTVYLQMNSLKPEDSSVYYCAAYVWRYWHEYDYWGQGTQVTVSS | low polyreactivity |
| QVQLVESGGGLVQAGGSLRLSCAASGSTFGYYGMGWYRQAPGKETELVAAISTGGRTNYADSVKGRFTISRDNAKNTVYLQMNSLKPEDTAVYYCAADFLSPAYRPSWYRFDYWGLGTQVTVSS | low polyreactivity |
| QVQLVESGGGLVQAGGSLRLSCAASGSTFGYYTMGWYRQAPGKERELVAAITWSGGSTYYADSVKGRFTISRDNAKNTVFLQMNSLKPEDTAVYYCAAEDYWTPFGYWGQGTQVTVSS | low polyreactivity |
| QVQLVESGGGLVQAGGSLRLSCAASGSTFGYYTMGWYRQAPGKERQLVAAISWSGGSTYYADSVKGRFTISRDNAKNTVYLLMNSLKPEDTAVYYCARGSQYRLWRTPHYYWGQGTQVTVSS | high polyreactivity |
| QVQLVESGGGLVQAGGSLRLSCAASGSTFGYYTMGWYRQEPGKERELVAAITWSGGSTYFEDSVKGRFTISRDNAKNTVYLQMNSLKPEDTAVYYCAADYYWTPFGYWGQGTLVTVSS | low polyreactivity |
| QVQLVESGGGLVQAGGSLRLSCAASGSTFGYYVMGWSRQAPGKERELVAAISWGGGSTYYADSVKGRFTISRDNAQNTVYLQMNSLNPEDTAVYYCNLRDQWWGYDYWGQGTQVTVSS | low polyreactivity |
| QVQLVESGGGLVQAGGSLRLSCAASGSTFHGNAMGWYRQAPGKERELVAAISRSGGSTYYADSVKGRFTISRDNAKNTVYLQMNSLKPEDTAVYYCAAETVYKWWYDYYYWGQGTQVTVSS | high polyreactivity |
| QVQLVESGGGLVQAGGSLRLSCAASGSTFHLYAMGWNRQAPGKERQFVAAIRGRGGNTYADSVKGRFTISRDNAKNTVYLQMNSLKPEDTAVYYCAAPLLRDLRSPYSYNYWGQGSQVTVSS | low polyreactivity |
| QVQLVESGGGLVQAGGSLRLSCAASGSTFHLYAMGWYRQAPGKEREIVAAIRGRGGNTYADSVKGRFTISRDNAKNTVYLQMNSLKPEDTAVYYCAAPLLRDLRSPYSYNYWGQGTQVTVSS | low polyreactivity |
| QVQLVESGGGLVQAGGSLRLSCAASGSTFHLYAMGWYRQAPGKERELVASITWSGGRTYYADSVKGRFTISRDYAKNTVYLHMNSLKPEDTAVYYCAAGDVNWSYSLLYTVVLYDSWGQGTQVTVSS | high polyreactivity |
| QVQLVESGGGLVQAGGSLRLSCAASGSTFHRNAMGWSRQAPGKERELVAAISFSGGRTYYADSVKGRFTISRDNAKNTVNLQMNSLKPEDTAVYYCAAVTASPGSYPDDYWGQGTQVTVSS | low polyreactivity |
